Experimental data as given in patent publication US11920136B2, “Transglutaminase-mediated conjugation” (Tallac Therapeutics, Inc., priority 2020, dated 2024).

Experiments:
[1] = system: EMT6 mouse mammary carcinoma cells; assay: EMT6 breast cancer model (checkpoint inhibitor refractory), intraperitoneal dosing; type: in vivo, BALB/c mice; conditions: intraperitoneally 2 doses every 3, 5 or 7 days at 10 mg/kg
Experimental: EMT6 mouse mammary carcinoma cells (ATCC) were cultured in Complete RPMI 1640 (RPMI1640+10% FBS (Gibco)) at 37° C. and 5% CO2. Cells were detached with Trypsin 0.25% (Gibco) and washed twice with RPMI 1640 (Gibco). Cells were resuspended at 20E6/mL in RPMI 1640 and kept on ice until use. 100 uL of suspended cells were subcutaneously implanted into the right flank of 6 week old female BALB/c mice (Charles River). Tumor size was measured and recorded twice a week with calipers starting 3 days post implantation until duration of the study, approximately 35 days later. Tumor volume was calculated using the following formula: (length×width×width)/2. Once tumors reached on average 75 mm^3, approximately 3 days post implantation, mice were randomized by tumor size and treatments were initiated. […] TNT50a conjugates were administered intraperitoneally 2 doses every 3, 5 or 7 days at 10 mg/kg.

[2] = system: CT26 mouse colon carcinoma cells; assay: CT26 model, anti-PD1 non-responders; type: in vivo, BALB/c mice; conditions: conjugate intravenously 2 doses every 3 days at 10 mg/kg; anti-PD1 intraperitoneal 10 mg/kg
Experimental: 100 uL of suspended cells were subcutaneously implanted into the right flank of 6 week old female BALB/c mice (Charles River).

[3] = system: EMT6 mouse mammary carcinoma cells; assay: EMT6 breast cancer model, intratumoral administration; type: in vivo, BALB/c mice; conditions: intratumorally 2 doses every 3 days at 24 uM
Experimental: 100 uL of suspended cells were subcutaneously implanted into the right flank of 6 week old female BALB/c mice (Charles River). Tumor size was measured and recorded twice a week with calipers starting 7 days post implantation until duration of the study, approximately 25 days later. Tumor volume was calculated using the following formula: (length×width×width)/2. Once tumors reached on average 180 mm^3, approximately 7 days post implantation, mice were randomized by tumor size and treatments were initiated.

4T1 cells = assay: 4T1 lung metastatic burden; type: in vivo, BALB/C mice; conditions: 10 mg/kg, 3 doses every 3 days; compared to the control
spleens and tumors = assay: Immunophenotyping of spleen and tumor in syngeneic models (A20, CT26, EMT6); type: in vivo, BALB/c mice; conditions: 1 or 2 doses intraperitoneally every 3 days at 10 mg/kg
Experimental: Immunophenotyping of multiple syngeneic models administered with TNT50a were conducted. […] A20 B cell lymphoma, CT26 colon carcinoma, EMT6 mouse mammary carcinoma cells (ATCC) were cultured in Complete RPMI 1640 (RPMI1640+10% FBS (Gibco)) at 37° C. and 5% CO2. Cells were detached with Trypsin 0.25% (Gibco) and washed twice with RPMI 1640 (Gibco). Cells were resuspended at 20E6/mL in RPMI 1640 and kept on ice until use. 100 uL of suspended cells were subcutaneously implanted into the right flank of 6 week old female BALB/c mice (Charles River). Tumor size was measured with calipers. Tumor volume was calculated using the following formula: (length×width×width)/2. Once tumors reached on average 200-300 mm^3, mice were randomized by tumor size and treatments were initiated. The conjugates were administered 1 or 2 doses intraperitoneally every 3 days at 10 mg/kg.
Spleens and tumors were harvested either two or three days post-last injection for immunophenotyping. Spleens were processed into single-cell suspension in ice-cold PBS, lysed with ACK lysis buffer (Gibco), washed twice and re-suspended in PBS supplemented with 2% FBS. Tumor-derived single-cell suspensions were prepared using a cocktail of Collagenase A (Roche), Collagenase D (Roche) and DNAse (Roche) for 45 min at 37° C. […]

Molecule | anti-tumor efficacy [1] | tumor volume in anti-PD1 non responders [2] | anti-tumor potency [3] | number of metastatic plaques (4T1 cells) | immune cell changes in spleen and tumor (spleens and tumors)
TNT50a: "an anti-mouse CD22 antibody (SEQ ID NO: 124 and SEQ ID NO: 125) conjugated to mouse CpG 4523 (SEQ ID NO: 121) of DAR1 configuration" (conjugate, listed as Mus musculus, antibody-CpG conjugate, DAR1) chain 1: QVQLQQPGAEIVRPGTSVKLSCKASGYTFTDYWMNWVKQRPGQGLEWFGAIDPSDSYTRYNQEFKGKATLTVDTSSTTAYMQLSSLTSEDSAVYFCARSDYTYSFYFDYWGLGTTLTVSS chain 2: DIVMTQAAFSNPVTLGTSASISCRSSKSLLHSNGITYLYWYLQKPGQSPQLLIYQMSNLASGVPDRFSSSGSGTDFTLRISRVEAEDVGVYYCAQNLELPWTFGGGTKLEIK DNA: tucgtcgtgacgtt | showed anti-tumor efficacy in all three dosing regimens | tumor volume was reduced | – | – | –
CD22 Ab-CpG conjugate: "anti-mouse CD22 antibody (SEQ ID NO: 124 and SEQ ID NO: 125) conjugated to mouse CpG 4523 (SEQ ID NO: 121) with a DAR1 configuration" (conjugate, listed as Mus musculus, antibody-CpG conjugate, DAR1) chain 1: QVQLQQPGAEIVRPGTSVKLSCKASGYTFTDYWMNWVKQRPGQGLEWFGAIDPSDSYTRYNQEFKGKATLTVDTSSTTAYMQLSSLTSEDSAVYFCARSDYTYSFYFDYWGLGTTLTVSS chain 2: DIVMTQAAFSNPVTLGTSASISCRSSKSLLHSNGITYLYWYLQKPGQSPQLLIYQMSNLASGVPDRFSSSGSGTDFTLRISRVEAEDVGVYYCAQNLELPWTFGGGTKLEIK DNA: tucgtcgtgacgtt | – | – | showed anti-tumor potency | significantly reduced | promotes B cell differentiation, decrease in Bregs, increase in T cell effector function and modulation of suppressive myeloid cells
